Series [1] addresses T1, GATA-2 (UniProt O09100 O09100:1-480). Briefly: competition; 1 ug, no competition. The following applies: tags: GST fusion (pGEX-2T). The method, then:
(§1) FIG. 5B is a photograph of an electrophoretic gel showing the results of an mobility shift assay. Based on the result of Dnase I footprinting, two double stranded DNA fragment (nucleotide −199 to −85 and nucleotide −22 to +9, respectively) were end-labeled with 32P and electrophoretic mobility shift assays were performed with GST-GATA-2 or GST-GATA-3. For each protein-DNA reaction, specific (S) or non-specific (N) DNA competitors were also included in the experiments.
(§2) After confirming the requirement for GATA DNA-binding activity, experiments were carried out to determine whether this activity requires direct interaction with the PPAR-gamma 2 promoter. The proximal PPAR-gamma 2 promoter region was evaluated by deletion analysis. […] To determine if and at what sites GATA factors directly interact with DNA on this fragment, DNase I footprinting experiments were carried out (FIG. 5A) combined with elecrophoretic mobility shift assays (FIG. 5B) using recombinant GATA-2 and GATA-3 fusion proteins. The electrophoretic mobility shift assays were performed in 20 ul reaction volume. 2 ul GST-GATA fusion protein was incubated with 0.5 ug poly[d(I-C)] and ³²p labeled DNA probe (4×10⁴ cpm) in the presence or absence of 1 ug of specific or non-specific competitors, at room temperature for 20 min. […]

The target of series [2] is T2, GATA-3 (UniProt P23772 P23772:1-443). Description: competition; 1 ug, no competition. The following applies: tags: GST fusion. The procedure:
as §1, §2

The target in series [3] is T1, GATA-2. Briefly: competition; 1 ug competitor competed complex. Particulars: tags: GST fusion (pGEX-2T). The method, then:
as §1, §2

Series [4] addresses T2, GATA-3. Briefly: competition; 1 ug competitor competed complex. The following applies: tags: GST fusion. The method, then: as §1, §2

T2 sequence (P23772 whole entry, the tested form may be a part, one chain of several): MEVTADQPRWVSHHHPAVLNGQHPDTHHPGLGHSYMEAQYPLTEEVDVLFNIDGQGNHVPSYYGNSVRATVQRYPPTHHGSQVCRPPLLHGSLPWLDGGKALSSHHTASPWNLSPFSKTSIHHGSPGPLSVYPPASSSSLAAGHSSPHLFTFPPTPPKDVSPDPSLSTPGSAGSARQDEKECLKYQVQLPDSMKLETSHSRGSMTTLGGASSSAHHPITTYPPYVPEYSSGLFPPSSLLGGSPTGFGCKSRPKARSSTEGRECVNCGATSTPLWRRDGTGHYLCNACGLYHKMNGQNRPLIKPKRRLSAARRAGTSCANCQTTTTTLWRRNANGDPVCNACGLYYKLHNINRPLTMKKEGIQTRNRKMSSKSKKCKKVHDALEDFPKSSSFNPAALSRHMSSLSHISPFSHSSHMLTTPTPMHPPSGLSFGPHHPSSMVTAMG
T1 sequence (O09100 whole entry, the tested form may be a part, one chain of several): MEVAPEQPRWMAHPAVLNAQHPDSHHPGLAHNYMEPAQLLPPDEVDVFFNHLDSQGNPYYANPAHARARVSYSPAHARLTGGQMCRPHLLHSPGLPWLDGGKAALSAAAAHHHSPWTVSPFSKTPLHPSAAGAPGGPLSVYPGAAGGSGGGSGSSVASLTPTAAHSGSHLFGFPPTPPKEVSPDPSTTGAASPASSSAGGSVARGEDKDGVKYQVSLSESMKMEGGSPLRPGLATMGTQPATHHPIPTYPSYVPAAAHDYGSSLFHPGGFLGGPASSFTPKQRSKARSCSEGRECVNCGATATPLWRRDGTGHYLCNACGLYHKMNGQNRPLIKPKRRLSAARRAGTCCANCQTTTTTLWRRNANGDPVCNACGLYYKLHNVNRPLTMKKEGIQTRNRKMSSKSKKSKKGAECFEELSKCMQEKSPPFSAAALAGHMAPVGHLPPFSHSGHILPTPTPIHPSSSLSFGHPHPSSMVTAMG

B1: non-specific competitor (dsDNA)
DNA 1: GATCGAACTGACCGCCCGCGGCCCGT
DNA 2: ACGGGCCGCGGGCGGTCAGTTCGATC
For the molecule B1, the binding result with GATA-2 [1] and with GATA-3 [2] was “no binding” in each case.

B2: specific GATA competitor (dsDNA)
DNA 1: GATCTCCGGCAACTGATAAGGATTCCCTG
DNA 2: CAGGGAATCCTTATCAGTTGCCGGAGATC
In the case of B2, the binding result with GATA-2 [3] and in the series with GATA-3 [4] was “binds” throughout.
